From US12448430B2 (dated 2025)

T1: Wilms tumor protein 1 (WT1) peptide on HLA-A*02:01 (human)
T1 peptide: VLDFAPPGA


Key:
[1] = molecular target: T1, Wilms tumor protein 1 (WT1) peptide on …; assay: multimer staining
[2] = molecular target: T1, Wilms tumor protein 1 (WT1) peptide on …; assay: killing

Binder | binding result [1] | binding result [2]
WT137-45 TCR10.1 (TCR, V domains shown) Valpha: KQEVTQIPAALSVPEGENLVLNCSFTDSAIYNLQWFRQDPGKGLTSLLLIQSSQREQTSGRLNASLDKSSGRSTLYIAASQPGDSATYLCAVKETSGSRLTFGEGTQLTVNP Vbeta: GAGVSQSPRYKVTKRGQDVALRCDPISGHVSLYWYRQALGQGPEFLTYFNYEAQQDKSGLPNDRFSAERPEGSISTLTIQRTEQRDSAMYRCASSLTGSYEQYFGPGTRLTVT | recognises | 
WT137-45 TCR15.1 (TCR, V domains shown) Valpha: GQNIDQPTEMTATEGAIVQINCTYQTSGFNGLFWYQQHAGEAPTFLSYNVLDGLEEKGRFSSFLSRSKGYSYLLLKELQMKDSASYLCAVRGINDYKLSFGAGTTVTVRA Vbeta: DGGITQSPKYLFRKEGQNVTLSCEQNLNHDAMYWYRQDPGQGLRLIYYSQIVNDFQKGDIAEGYSVSREKKESFPLTVTSAQKNPTAFYLCASSRDREQESPLHFGNGTRLTVT |  | recognises
